This sample holds only a part of the variants without activity.
B1: TPR 5TU (parent)
chain: GGAUCUUCUCGAUCUAACAAAAAAGACAAAUCUGCCACAAAGCUUGAGAGCAUCUUCGGAUGCAGAGGCGGCAGCCUUCGGUGGCGCGAUAGCGCCAACGUUCUCAACUAUGACACGCAAAACGCGUGCUCCGUUGAAUGGAGUUUAUCAUG

Variants of: B1
Test: polymerase ribozyme fitness, log enrichment relative to wild type (log ratio); higher = more active; in vitro selection for triplet polymerase activity
Method in brief: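 For each subunit of a heterodimeric triplet polymerase ribozyme, a mutant library was built by PCR and transcribed, then taken through a single in vitro selection round in triplicate. Selection involved annealing to a biotinylated primer, the partner subunit and triplets, incubation frozen at −7 °C, gel excision of extended constructs, capture on streptavidin beads and RT-PCR. Genotypes were retained after Illumina sequencing of inputs and outputs only with ≥10 input reads and ≥1 read in each output. Fitness is defined as the logarithm of a genotype's enrichment relative to wild-type enrichment, using inverse-variance-weighted averages across replicates, with the logarithm taken to base 2.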

| Variant | polymerase ribozyme fitness (log ratio) |
| --- | --- |
| A12C A97G U102G | -3.89 |
| U9G A89U C95A | ≤ -4.2 |
| C10U G42A A49U A64G G71A U139C | ≤ -4.2 |
| C10G A64C G70A A97U U144G A150U | ≤ -4.2 |
| U9G G59U G68C G84U C105A G124A G133C A142C | ≤ -4.2 |
| A12C A41G C87A A89C U144A | ≤ -4.2 |
| C10U C32A C38G C43A G83A A91U C95G A97U U144G | ≤ -4.2 |
| U9C A19G A30G C35A U56A C87G G117U U148C | ≤ -4.2 |
| A12C C35U A39G G59A C85A C87U | ≤ -4.2 |
| G11U G84A U144G | 0.53 |
| C10U U13G C14A A28C C54U G92C A113U A122G C129U | ≤ -4.2 |
| U9C U33C C87A A122C | ≤ -4.2 |
| U9G U13C A24U A49C C51G A52C A73C U104A C108G | ≤ -4.2 |
| C10A A20G C38A U55A A60C | ≤ -4.2 |
| A12C A52G C93U U101C C105U | -2.54 |
| G11U A40U G84A C132A G143C | ≤ -4.2 |
| U9G C14U A29C C35A C87U G92A G94U A98U A137U | ≤ -4.2 |
| U9C U82A G92U C116U U134G | ≤ -4.2 |
| G11C A122G | -2.55 |
| G11U A29U U55G G92U C93G C95A G133A U144A A150C | ≤ -4.2 |
| C10U A20U G83U | -3.85 |

| Variant | polymerase ribozyme fitness (log ratio) |
| --- | --- |
| G11A U61A G67C C87G G141U | ≤ -4.2 |
| U9G C27G A28G A41C C57U U82G G92C G140U | ≤ -4.2 |
| C10U U56A G67C G86C C96A G126U | ≤ -4.2 |
| C10U G67C | ≤ -4.2 |
| C10G A21U C87G A91U C95A | ≤ -4.2 |
| G11A A29G C38G A147C | ≤ -4.2 |
| C10G C38U C95A | ≤ -4.2 |
| U9C G88C A137C | ≤ -4.2 |
| U9C A119U | ≤ -4.2 |
| G11A U45A G46C G80C C87A | ≤ -4.2 |
| G11C A30G U53A G58A C95A | ≤ -4.2 |
| C10G G48A G80A G84A A91C C114U C125U A142C | ≤ -4.2 |
| C10G A17U C54G C93U A106C C125A | ≤ -4.2 |
| G11U G83A C96U | -0.589 |
| C10G A26U C43A G94C U127C G143U | ≤ -4.2 |
| C10G A47C C54A U55A G58A C63U U82C C87G G100U A113C U134G | ≤ -4.2 |
| G11A C85A A121U C149U | -2.75 |
| G11C A47U G68C C85A C95A A106G U134C A150G | ≤ -4.2 |
| C10A G48A U56G C79G C96A G143C | ≤ -4.2 |
| C10G U82C G94U U102C A107C A138U | ≤ -4.2 |
| G11C A26G C93A A120U G126C | -3.54 |

| Variant | polymerase ribozyme fitness (log ratio) |
| --- | --- |
| G11A A17C A20C A22U G46U C85U | -3.03 |
| C10U C96G A119U | ≤ -4.2 |
| U9C C57U G83A A119U G124C | ≤ -4.2 |
| G11U A28G A41U U61G G68A C96U A97C C108U G143U C149A | ≤ -4.2 |
| C10A A39U U55A C57A U90G G92A | ≤ -4.2 |
| C10U C125U | -3.3 |
| C10A G83C | -3.94 |
| G11C A22C G50U U56A C96A G141A | -3.94 |
| C10U A12U A121C | -4.08 |
| G11A G83A G94U G128U U145G | ≤ -4.2 |
| G11U A22G G59U G65C A98U U127C C129G | ≤ -4.2 |
| A12C C35G U56G G80A G81C G100C C116U U135C | ≤ -4.2 |
| U9G A23U A26G A28G U61A G80A A120U G141U | ≤ -4.2 |
| U9G C27U A41U G46C U90G C96G A119C A122C | ≤ -4.2 |
| G11C C85U A97U G124C | -3.4 |
| U9G A24U C35U A60C G71A G128A G143U A150G | ≤ -4.2 |
| U9A G94A | -3.69 |
| G11U C96U A119C | -1.07 |
| C10U U13C A52U C96A | -3.64 |
| C10U G143U | -3.61 |
| C10G U53A A150C | ≤ -4.2 |

| Variant | polymerase ribozyme fitness (log ratio) |
| --- | --- |
| A12C A19C G58C G62A C63U A97G | ≤ -4.2 |
| C10U A23G C36A G58U A113U | ≤ -4.2 |
| G11U G58C G84U A97U | -2.86 |
| C10G A98G | -4 |
| G11C C38U G65U A122U | ≤ -4.2 |
| C10G G88U C96U C132G | ≤ -4.2 |
| C10U A29U A47U G84U C103A C116G U145G G152U | ≤ -4.2 |
| G11C A19C | -1.41 |
| U9G C35U G48U U56G A60C G74A C96G U104G A107U | ≤ -4.2 |
| G11U A19U G81U C95U | -1.81 |
| C10U U90G C116G | -3.83 |
| U9G G141U | -2.58 |
| A12C A37C G50A C79G A98G | ≤ -4.2 |
| U9G U56G G84U C87A U90G U109G U130C U139A | ≤ -4.2 |
| C10A A22U A39U C85U G126A | ≤ -4.2 |
| G11C U33A U44C C76A A89U C95U A122C C123U G133A | ≤ -4.2 |
| C10U A16U G34U A39G G94A G141C | -3.56 |
| C10U A47C | -3.19 |
| C10G A19G A37G G42C C57U G59A C129A | ≤ -4.2 |
| G11C C54U G62A A121U | -2.2 |
